# Data from article PMC4944999 (PLoS ONE, 2016).
# Target: PeB^GF-Lys, double substituted variant ([change], [change]) of PeB-Lys (mouse)
# Assay: SPR
substance,measurement,value
"hemagglutinin (HA) of influenza A/California/7/2009 H1N1, in the split vaccine Pandemrix (natural protein)",fold amount of hemagglutinin bound compared to PeB,20 fold
